# Source: PMC314469, “Protein Interaction Networks by Proteome Peptide Scanning” (PLoS Biology, 2004)
# T1: Boi1 SH3 (BOI1_YEAST), P38041
# T1 chain: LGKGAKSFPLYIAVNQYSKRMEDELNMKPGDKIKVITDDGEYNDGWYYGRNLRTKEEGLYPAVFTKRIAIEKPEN
# T2: Boi2 SH3 (BOI2_YEAST), P39969
# T2 chain: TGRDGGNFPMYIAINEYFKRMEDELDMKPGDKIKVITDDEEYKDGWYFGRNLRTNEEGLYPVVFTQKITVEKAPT
# T3: Rvs167 SH3 (RV167_YEAST), P39743
# T3 chain: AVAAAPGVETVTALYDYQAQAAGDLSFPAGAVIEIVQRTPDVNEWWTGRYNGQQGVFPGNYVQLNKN
# T4: Yfr024 SH3 (LSB3_YEAST), P43603
# T4 chain: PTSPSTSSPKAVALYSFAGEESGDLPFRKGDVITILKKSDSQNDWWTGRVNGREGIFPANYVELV
# T5: Yhr016c SH3 (YSC84_YEAST), P32793
# T5 chain: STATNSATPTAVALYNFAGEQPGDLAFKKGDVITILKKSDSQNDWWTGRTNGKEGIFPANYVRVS
# Assays:
# Assay in all cases: SPOT array
# [1] = target: T1, Boi1 SH3 (BOI1_YEAST), P38041
# [2] = target: T2, Boi2 SH3 (BOI2_YEAST), P39969
# [3] = target: T3, Rvs167 SH3 (RV167_YEAST), P39743
# [4] = target: T4, Yfr024 SH3 (LSB3_YEAST), P43603
# [5] = target: T5, Yhr016c SH3 (YSC84_YEAST), P32793
Binder,"normalised SPOT signal, Boehringer light units (BLU); mean over the file's lines of this peptide [1]","normalised SPOT signal, Boehringer light units (BLU); mean over the file's lines of this peptide [2]","normalised SPOT signal, Boehringer light units (BLU); mean over the file's lines of this peptide [3]","normalised SPOT signal, Boehringer light units (BLU); mean over the file's lines of this peptide [4]","normalised SPOT signal, Boehringer light units (BLU); mean over the file's lines of this peptide [5]"
LLPPTDPFRRKHEQ [YHR148W 63-76],56.5,15,49.4,314,224
LMPPDSPPRMTENT [YBR275C 1790-1803],47.3,162,1.2,1520,485
LNSPDLPERTKLRN [YDL225W 445-458],6110,31.1,23300,35600,59600
LPAPHRPEKYKERF [YGR154C 67-80],89.9,35.8,28.8,1230,171
LPAPPPPPRRGPAP [YOR181W 341-354],2960,55.6,5620,6280,1260
LPLPTLPDRQLFQT [YPL115C 570-583],125,48.9,3860,15100,6800
LPPPIIPLRKYGHN [YGR233C 693-706],20400,353,1930,15900,18400
LPPPRSPNRPTLSD [YER158C 363-376],53500,48500,15000,33900,12200
LPVPPPPVRPSISF [YDL140C 239-252],37.7,51.2,769,11400,3380
LPVPQLPPKLLVYP [YBR279W 17-30],375,57.9,64.4,4360,196
LQIPPLPLKLLTPV [YGR204W 307-320],113,49.8,78.2,1670,195
LQNPLGPERTFLIM [YLR253W 491-504],121,32.9,27.6,197,49
LRDPVIPIKLAAEK [YGL195W 2564-2577],200,28.8,2.2,68.1,0
LRIPETPVKKSPLV [YJL187C 191-204],66.9,42,1.6,164,37.4
LRKPRAPMRNVIIT [YER141W 449-462],197,90.5,229,3330,257
LRKPSAPKRMSSIS [YMR086W 52-65],119,77.6,276,2940,270
LRLPEIPPKGDFDV [YFL036W 1327-1340],1.5,78.1,28.8,322,124
LRRPIFPGRDYRHQ [YBL016W 218-231],825,234,947,8010,1090
LRSPNTPRRLRKTL [YDR545W 312-325],236,322,2540,21100,3240
LRSPQNPNRMTAVI [YPL115C 235-248],55.6,49,20.7,1210,155
LSSPNVPGKPQVAY [YKL216W 131-144],67.9,43.1,1.5,201,77.3
LSKPSKPLKEIRFD [YAR003W 101-114],233,63,82.7,586,227
